Reference: patent publication US20100047226

Legend:
[1] = system: T1, control peptide (adjacent overlapping PKAc peptide)
T1 sequence: GFAKRVKGRTWTL

[2] = system: full-length, active PKAc (purified)
[3] = system: T2, ZaTa peptide (PKAc fragment flanking Thr-197)
T2 sequence: AKRVKGRTWTLCGTPEY

[4] = biological target: active AKT1 mutant with a Ser473Asp mutation (UniProt P31749)
[5] = biological target: active AKT1 mutant with a deletion in the PH domain (UniProt P31749)
[6] = biological target: active AKT1 (purified, Upstate Biotechnology) (UniProt P31749)
Sequence of active AKT1 (purified, Upstate Biotechnology) (P31749 whole entry, looked up): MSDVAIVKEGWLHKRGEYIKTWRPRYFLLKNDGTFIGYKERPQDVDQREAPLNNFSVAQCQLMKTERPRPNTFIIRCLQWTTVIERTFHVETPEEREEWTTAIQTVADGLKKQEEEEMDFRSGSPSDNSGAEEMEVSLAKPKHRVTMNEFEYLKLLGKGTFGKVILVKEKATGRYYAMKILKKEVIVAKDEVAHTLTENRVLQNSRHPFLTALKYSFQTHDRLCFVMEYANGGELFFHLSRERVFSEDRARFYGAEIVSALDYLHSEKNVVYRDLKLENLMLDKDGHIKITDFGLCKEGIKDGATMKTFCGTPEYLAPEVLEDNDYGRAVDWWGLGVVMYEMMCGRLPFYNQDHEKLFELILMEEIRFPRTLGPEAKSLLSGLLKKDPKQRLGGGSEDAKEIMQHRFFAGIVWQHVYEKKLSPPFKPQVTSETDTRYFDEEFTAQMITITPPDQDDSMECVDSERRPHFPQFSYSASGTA

Sequence of active AKT1 mutant with a deletion in the PH domain (P31749 whole entry, looked up, stated change not applied, the tested form may be a part): as the sequence (P31749 whole entry, looked up) above
Sequence of active AKT1 mutant with a Ser473Asp mutation (P31749 whole entry S473D, the tested form may be a part): as the sequence (P31749 whole entry, looked up) above, with S473D counted along it

active AKT1 (purified, Upstate Biotechnology)
AKT1 in vitro catalytic activity (32P incorporation into Ser-21 GSK-3 substrate peptide) [1]: the adjacent overlapping peptide was not able to inhibit AKT1
PKA kinase activity in vitro (phosphorylation of DARPP-32 at Thr-34) [2]: addition of the active AKT to the PKA kinase assay increased the catalytic activity of PKAc
phosphorylation level of PKAc at Thr-197 in vitro [2]: the increase in the PKAc catalytic activity was accompanied by an increase in the phosphorylation level of PKAc at Thr-197
IC-50 of AKT1 catalytic activity (32P incorporation, CPM) [3]: IC-50 of the ZaTa peptide was within a nanomolar range in these assays
IC-50 of AKT1 in vitro catalytic activity (32P incorporation into Ser-21 GSK-3 substrate peptide) [3]: IC-50 ˜0.1 µM
phosphorylation of Ser-9 GSK-3 GST substrate in the AKT1 kinase assay (western blot) [3]: The phosphorylation level of Ser-9 GSK-3 GST substrate was significantly reduced after adding the ZaTa peptide to the AKT1 kinase assay
phosphorylation of ZaTa by AKT (control kinase reactions with peptide and AKT only) [3]: ZaTa peptide itself was not a substrate for AKT

full-length, active PKAc (purified)
AKT kinase activity in vitro [4]: The decrease in the catalytic activity of AKT by PKAc was also observed with two mutants and active forms of AKT1 ... the other one with a Ser473Asp mutation
AKT kinase activity in vitro [5]: The decrease in the catalytic activity of AKT by PKAc was also observed with two mutants and active forms of AKT1, one with a deletion in the PH domain
AKT kinase activity in vitro (Ser-9 GSK-3 GST fusion protein as substrate) [6]: the kinetic activity of AKT was dramatically reduced

active PKAc purified from bovine tissue
AKT kinase activity in vitro [6]: the same inhibitory effect was observed with active PKAc purified from bovine tissue

human PKAc expressed in Sf9 cells
AKT kinase activity in vitro [6]: the same inhibitory effect was observed ... with human PKAc expressed in Sf9 cells
